No end group written: not given here.
Legend:
CGRP receptor = molecular target: T1, CGRP receptor (Homo sapiens, UniProt O60894+Q16602); experiment: [125I]CGRP binding to membranes from 293 cells (clone 22) stably transformed with CGRP receptor cDNA; settings: for rank order of potency in competition against [125I]CGRP binding: two to three independent experiments in duplicate
T1 construct: expressed in transfected cells; host or cells: Human Kidney 293 cells (transient)
Protocol: FIG. 8. Saturation binding. […] Equilibrium binding was measured at 25° C. for 60 min. […] Data are from one experiment representative of three independent experiments done in duplicate. (B) Scatchard plot of [^125I] CGRP binding.
FIG. 9. Competition binding profiles. Competition curves for representative CGRP analogs against [^125I]CGRP binding to membranes prepared from 293 cells (clone 22 cells) stably transformed with the CGRP receptor cDNA. Each curve is representative of two to three independent experiments, each carried out in duplicate.

[1] = molecular target: human CGRP receptor polypeptide (recombinant, expressed in 293 cells from construct pCDNHCGRPr) (human) (UniProt Q16602); experiment: cell-based or functional assay
Chain of human CGRP receptor polypeptide (recombinant, expressed in 293 cells from construct pCDNHCGRPr) (human) (Q16602 22-461): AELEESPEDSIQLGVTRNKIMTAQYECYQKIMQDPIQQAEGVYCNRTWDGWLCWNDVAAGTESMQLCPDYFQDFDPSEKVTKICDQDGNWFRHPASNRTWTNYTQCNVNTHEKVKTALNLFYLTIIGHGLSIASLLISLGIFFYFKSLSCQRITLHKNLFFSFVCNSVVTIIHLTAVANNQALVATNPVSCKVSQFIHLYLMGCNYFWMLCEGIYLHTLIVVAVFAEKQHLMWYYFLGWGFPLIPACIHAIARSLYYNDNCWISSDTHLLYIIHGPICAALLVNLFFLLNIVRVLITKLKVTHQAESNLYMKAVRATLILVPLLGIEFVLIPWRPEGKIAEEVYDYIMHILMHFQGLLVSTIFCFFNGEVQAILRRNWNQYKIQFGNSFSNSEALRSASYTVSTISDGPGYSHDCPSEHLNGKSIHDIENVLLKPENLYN

T1 sequence (Q16602 23-461): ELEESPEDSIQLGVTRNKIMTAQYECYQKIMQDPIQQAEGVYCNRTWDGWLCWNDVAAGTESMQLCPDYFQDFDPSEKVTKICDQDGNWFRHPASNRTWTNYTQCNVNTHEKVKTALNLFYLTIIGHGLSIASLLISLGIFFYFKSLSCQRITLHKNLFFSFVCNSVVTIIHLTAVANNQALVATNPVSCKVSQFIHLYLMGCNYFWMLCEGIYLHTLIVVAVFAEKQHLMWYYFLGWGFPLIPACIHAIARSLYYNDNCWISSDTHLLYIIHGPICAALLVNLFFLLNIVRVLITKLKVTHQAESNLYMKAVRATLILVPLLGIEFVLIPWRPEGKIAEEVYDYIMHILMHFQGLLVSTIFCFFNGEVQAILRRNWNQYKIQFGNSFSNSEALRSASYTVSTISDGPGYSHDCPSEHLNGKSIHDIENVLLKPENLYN
T1 sequence (O60894 27-148): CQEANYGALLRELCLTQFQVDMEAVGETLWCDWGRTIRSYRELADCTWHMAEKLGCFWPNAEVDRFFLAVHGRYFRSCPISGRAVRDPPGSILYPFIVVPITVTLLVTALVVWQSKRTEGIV

Molecule | rank order of potency in competition against [125I]CGRP binding (CGRP receptor) | further results
porcine vasoactive intestinal peptide (VIP): porcine vasoactive intestinal peptide | >>>> | –
human CGRP (8-37) (from UniProt P06881 90-119) (peptide) | – | pA2 against CGRP-mediated cAMP accumulation in stably transformed 293 cells, 100 nM CGRP (8-37) [1]: 7.8 pA2
salmon calcitonin (8-32): salmon calcitonin fragment (8-32) (VLGKLSQELHKLQTYPRTNTGSGTP; ends and bridges not checked) | >>>> | –
human calcitonin (hCT): human calcitonin | >>>> | –
human amylin: islet amyloid polypeptide (IAPP or amylin), human (KCNTATCATQRLANFLVHSSNNFGAILSSTNVGSNTY) | >>>> | –
CC(C)C[C@H](NC(=O)CNC(=O)[C@H](C)NC(=O)[C@H](CC(C)C)NC(=O)[C@H](CCCNC(=N)N)NC(=O)[C@H](Cc1cnc(I)[nH]1)NC(=O)[C@@H](NC(=O)[C@@H](NC(=O)[C@@H]1CSSC[C@H](NC(=O)[C@H](C)N)C(=O)N[C@@H](CC(=O)O)C(=O)N[C@@H]([C@@H](C)O)C(=O)N[C@@H](C)C(=O)N[C@@H]([C@@H](C)O)C(=O)N1)C(C)C)[C@@H](C)O)C(=O)N[C@@H](CC(C)C)C(=O)N[C@@H](CO)C(=O)N[C@@H](CCCNC(=N)N)C(=O)N[C@@H](CO)C(=O)NCC(=O)NCC(=O)N[C@H](C(=O)N[C@H](C(=O)N[C@@H](CCCCN)C(=O)N[C@@H](CC(N)=O)C(=O)N[C@@H](CC(N)=O)C(=O)N[C@@H](Cc1ccccc1)C(=O)N[C@H](C(=O)N1CCC[C@H]1C(=O)N[C@H](C(=O)N[C@@H](CC(N)=O)C(=O)N[C@H](C(=O)NCC(=O)N[C@@H](CO)C(=O)N[C@@H](CCCCN)C(=O)N[C@@H](C)C(=O)N[C@@H](Cc1ccccc1)C(N)=O)C(C)C)[C@@H](C)O)C(C)C)C(C)C)C(C)C [[^125I] CGRP] | – | Bmax (Scatchard plot, saturation binding) (CGRP receptor; equilibrium binding at 25° C. for 60 min): 89 fmol/mg protein

From patent US20020164707A1, “Calcitonin gene related peptide receptor” (Human Genome Sciences, Inc., priority 1994, published 2002)
